“And” between values parts separate entries of the source, which are not always exact repeats. Equal entries are not always repeated.
Conditions: Dickeya chrysanthemi, reversible: yes, whole UniProt chain shown; for Tm / unfolding enthalpy (calorimetric) / unfolding enthalpy (van 't Hoff): Thermal, DSC; for denaturant m value / denaturant midpoint (higher = more stable) / unfolding free energy: 25 °C, GdnHCl
[1] = pH 5, CD, Sodium phosphate 0.1 M, sodium chloride 150 mM
[2] = pH 5, CD, Sodium phosphate buffer, NaCl
[3] = pH 5, Fluorescence, Sodium phosphate 0.1 M, sodium chloride 150 mM
[4] = pH 5, fluorescence, Sodium phosphate buffer, NaCl
[5] = pH 7, CD, Sodium phosphate 0.1 M, sodium chloride 150 mM
[6] = pH 7, CD, Sodium phosphate buffer, NaCl
[7] = pH 7, Fluorescence, Sodium phosphate 0.1 M, sodium chloride 150 mM

B1: Pectate lyase C wild type, P11073 (protein)
chain: MKSLITPITAGLLLALSQPLLAATDTGGYAATAGGNVTGAVSKTATSMQDIVNIIDAARLDANGKKVKGGAYPLVITYTGNEDSLINAAAANICGQWSKDPRGVEIKEFTKGITIIGANGSSANFGIWIKKSSDVVVQNMRIGYLPGGAKDGDMIRVDDSPNVWVDHNELFAANHECDGTPDNDTTFESAVDIKGASNTVTVSYNYIHGVKKVGLDGSSSSDTGRNITYHHNYYNDVNARLPLQRGGLVHAYNNLYTNITGSGLNVRQNGQALIENNWFEKAINPVTSRYDGKNFGTWVLKGNNITKPADFSTYSITWTADTKPYVNADSWTSTGTFPTVAYNYSPVSAQCVKDKLPGYAGVGKNLATLTSTACK
- Tm (pH 4): 56.5 °C
- unfolding enthalpy (calorimetric) (pH 4): 256 kcal/mol
- unfolding enthalpy (van 't Hoff) (pH 4): 174 kcal/mol
- denaturant m value [1]: 15.7 kcal/mol/M
- denaturant midpoint (higher = more stable) [1]: 0.95 M
- unfolding free energy [1]: 14.9 kcal/mol
- denaturant m value [2]: 12.5 kcal/mol/M and 15.7 kcal/mol/M
- denaturant midpoint (higher = more stable) [2]: 0.97 M
- unfolding free energy [2]: 14.9 kcal/mol
- denaturant m value [3]: 14.5 kcal/mol/M
- denaturant midpoint (higher = more stable) [3]: 0.96 M
- unfolding free energy [3]: 14 kcal/mol
- denaturant m value [4]: 14.5 kcal/mol/M
- denaturant midpoint (higher = more stable) [4]: 0.96 M
- unfolding free energy [4]: 14 kcal/mol
- Tm (pH 5): 59.8 °C
- unfolding enthalpy (calorimetric) (pH 5): 270 kcal/mol
- unfolding enthalpy (van 't Hoff) (pH 5): 181 kcal/mol
- Tm (pH 6): 56.5 °C
- unfolding enthalpy (calorimetric) (pH 6): 255 kcal/mol
- unfolding enthalpy (van 't Hoff) (pH 6): 203 kcal/mol
- denaturant m value [5]: 12.2 kcal/mol/M and 11.8 kcal/mol/M
- denaturant midpoint (higher = more stable) [5]: 0.99 M and 0.98 M
- unfolding free energy [5]: 12.1 kcal/mol and 11.6 kcal/mol
- denaturant m value [6]: 12.2 kcal/mol/M and 11.8 kcal/mol/M
- denaturant midpoint (higher = more stable) [6]: 0.99 M and 0.98 M
- unfolding free energy [6]: 12.1 kcal/mol and 11.6 kcal/mol
- denaturant m value [7]: 13 kcal/mol/M
- denaturant midpoint (higher = more stable) [7]: 1 M
- unfolding free energy [7]: 13 kcal/mol
- Tm (pH 7): 51.2 °C
- unfolding enthalpy (calorimetric) (pH 7): 240 kcal/mol
- unfolding enthalpy (van 't Hoff) (pH 7): 219 kcal/mol
- Tm (pH 8): 46.5 °C
- unfolding enthalpy (calorimetric) (pH 8): 235 kcal/mol
- unfolding enthalpy (van 't Hoff) (pH 8): 201 kcal/mol

From FireProtDB (doi:10.1021/bi001900v)
